Measurements taken from patent US20210324063A1.

Molecular target: recombinant human VEGF-165 (R&D Systems) (human) (UniProt P15692)
Sequence (P15692 other isoform, or with tags, fused parts or gaps limits assumed): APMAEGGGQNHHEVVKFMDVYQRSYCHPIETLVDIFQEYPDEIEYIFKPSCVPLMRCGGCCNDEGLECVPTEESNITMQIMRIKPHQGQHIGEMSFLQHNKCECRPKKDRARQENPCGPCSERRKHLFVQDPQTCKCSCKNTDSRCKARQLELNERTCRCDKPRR

- IC50, inhibition of VEGF-stimulated HuRMVEC proliferation (WST-1, OD450): 0.683 nM
Substance: Eylea (aflibercept) (Fc fusion)
